Where two headings read alike, the source gives them in different places. One block for each binder: values may come before it. No end group written: not given here.
Experiments:
NHERF1 PDZ1 domain [1] = target: T1, NHERF1 PDZ1 domain (human, UniProt O14745 1-139); test: fluorescence polarisation
T1 sequence (looked up): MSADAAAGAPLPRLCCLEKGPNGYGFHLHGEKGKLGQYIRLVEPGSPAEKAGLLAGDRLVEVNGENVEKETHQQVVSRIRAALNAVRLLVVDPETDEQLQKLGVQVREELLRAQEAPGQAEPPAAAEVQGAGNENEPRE

CAL PDZ domain [2] = target: T2, CAL PDZ domain (UniProt Q9HD26-2 278-362); test: fluorescence polarisation
CAL PDZ domain [3] = target: T2, CAL PDZ domain; test: fluorescence polarisation; remark: listed apart in the source
NHERF1 PDZ1 domain [4] = target: T1, NHERF1 PDZ1 domain; test: fluorescence polarisation; remark: listed apart in the source
NHERF1 PDZ1 domain [5] = target: T1, NHERF1 PDZ1 domain; test: fluorescence polarisation; remark: listed apart in the source
CAL PDZ domain [6] = target: T2, CAL PDZ domain; test: peptide or protein array
NHERF1 PDZ1 domain [7] = target: T1, NHERF1 PDZ1 domain; test: ITC
NHERF1 PDZ1 domain [8] = target: T1, NHERF1 PDZ1 domain; test: ITC; remark: listed apart in the source
NHERF1 PDZ1 domain [9] = target: T1, NHERF1 PDZ1 domain; test: SPR

- Kd (NHERF1 PDZ1 domain [1]): 0.949 ± 0.089 µM
Binder: C(fluorescein‑5‑maleimide)DTRL [F*C-CFTR4]

- Ki (CAL PDZ domain [2]): 42.2 ± 4.2 µM
Binder: CHRTCYLVTQL [C-AIC3A10]

- Ki (CAL PDZ domain [3]): 110 ± 60 µM
- Ki (CAL PDZ domain [2]): 93 ± 8.5 µM
Binder: CEVYLLNSTTL [C-ClC3B10]

- Ki (NHERF1 PDZ1 domain [4]): 0.949 µM
- Ki (NHERF1 PDZ1 domain [5]): 1.52 ± 0.078 µM
Binder: CDTRL [C-CFTR4]

- Ki (CAL PDZ domain [2]): 1940 ± 920 µM
Binder: CKKMPSIESDV [C-NR2A10]

- Ki (CAL PDZ domain [2]): 1110 ± 480 µM
Binder: CNQLAWFDTDL [C-βCAT10]

- Ki (CAL PDZ domain [2]): 158 ± 19 µM
Binder: CHPHSHSTTRV [C-NLG10]

- Ki (CAL PDZ domain [2]): 88.3 ± 6.3 µM
Binder: CDGQMQLVTSL [C-CL1_(10)]

- binding result (CAL PDZ domain [6]): binds
Binder: ETEEEVQDTRL (peptide, UniProt P13569 1470-1480, looked up) [CFTR C-terminal undecamer peptide on the HUMLIB array]

- binding result (CAL PDZ domain [6]): binds
Binder: AANGLMQTSKL (peptide, UniProt P35346 354-364, looked up) [SSR5 C-terminal undecamer peptide on the HUMLIB array]

- Ki (CAL PDZ domain [2]): 229 ± 16 µM
Binder: CQPRTWLQSPV [C-RTKN10]

- Ki (NHERF1 PDZ1 domain [5]): 0.209 ± 0.064 µM
Binder: CGGAALKEETEEEVQDTRL [CGG-CFTR16]

- dH (NHERF1 PDZ1 domain [7]): -9.11 kcal/mol
- Kd (NHERF1 PDZ1 domain [8]): 0.787 ± 0.055 µM
- dH (NHERF1 PDZ1 domain [8]): -10.4 ± 0.19 kcal/mol
- dH extrapolated to 37 °C (NHERF1 PDZ1 domain [8]): -12.2 kcal/mol
Binder: TEEEVQDTRL [CFTR10]

- Ki (CAL PDZ domain [3]): 410 ± 190 µM
- Ki (CAL PDZ domain [2]): 510 ± 110 µM
Binder: CRPGFASESKV [C-β1AR10]

- Ki (NHERF1 PDZ1 domain [5]): 0.597 ± 0.077 µM
- Ki (CAL PDZ domain [2]): 690 ± 120 µM
- Kd (NHERF1 PDZ1 domain [9]): 0.0103 µM
Binder: CTEEEVQDTRL [C-CFTR10]

- Kd (NHERF1 PDZ1 domain [1]): 0.279 ± 0.021 µM
Binder: fluorescein-TEEEVQDTRL [F*-CFTR10]

- Ki (CAL PDZ domain [2]): 107 ± 1.7 µM
Binder: CLPHPHSTTRV [C-NLG2_(10)]

- Ki (NHERF1 PDZ1 domain [5]): 0.67 ± 0.097 µM
Binder: CVQDTRL [C-CFTR6]

- Ki (CAL PDZ domain [2]): 47 ± 10 µM
Binder: CYPKQMPLSQV [C-FRZ8_(10)]

- Ki (CAL PDZ domain [3]): 22.6 ± 7.1 µM
- Ki (CAL PDZ domain [2]): 37.6 ± 4 µM
Binder: CANGLMQTSKL [C-SSR5_(10)]

- Ki (CAL PDZ domain [2]): 875 ± 56 µM
Binder: CALDTSHGTSI [C-GluRδ1_(10)]

- Ki (CAL PDZ domain [2]): 451 ± 42 µM
Binder: CYHKQVSLSHV [C-FRZ5_(10)]

- Ki (CAL PDZ domain [2]): 560 ± 130 µM
Binder: CGNDPDRGTSI [C-GluRδ2_(10)]

- Ki (CAL PDZ domain [2]): 150 ± 20 µM
Binder: CAPIAGFSSFV [C-SDK2_(10)]

- Kd (NHERF1 PDZ1 domain [1]): 0.116 ± 0.01 µM
Binder: fluorescein-GGAALKEETEEEVQDTRL [F*GG-CFTR16]

Reference: paper PMC2582146 (Biochemistry, 2008)
